Consider two molecules from patent publication US20220127332A1 (CURA THERAPEUTICS, published 2022).

The target in experiment [1] is T1, active TGFβ1 (human, UniProt P01137 279-390).
T1 construct: mature; also called TGFb1; human active TGFβ1
Description: cell-based or functional assay.

For a further experiment, the target named is active TGFβ3 (UniProt P10600). Briefly: blocking of active TGFβ3 (1 ng/mL) in solution, 30 min in PBS; free TGFβ3 by ELISA. In general terms: An ELISA detects its analyte on a solid surface through an enzyme-linked reagent.
active TGFβ3, sequence (P10600 301-412): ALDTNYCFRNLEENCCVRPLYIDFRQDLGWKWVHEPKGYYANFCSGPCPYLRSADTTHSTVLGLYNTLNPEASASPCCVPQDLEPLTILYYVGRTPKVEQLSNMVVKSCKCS
The target in experiment [2] is T1, active TGFβ1. Description: blocking of active TGFβ1 (1 ng/mL) in solution, 30 min in PBS; free TGFβ1 by ELISA.

T1 sequence (P01137 279-390 limits assumed): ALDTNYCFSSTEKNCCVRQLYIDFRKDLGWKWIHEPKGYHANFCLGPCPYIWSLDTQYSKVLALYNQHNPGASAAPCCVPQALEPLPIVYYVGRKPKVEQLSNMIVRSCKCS

In turn, “FIST (monovalent FIST; fusion protein of an IL-2 polypeptide and a single sTBRII receptor polypeptide)” registered an IC50 values for the inhibition of TGFb1-dependent suppression of CTLL-2 cell proliferation with active TGFβ1 [1] of 0.12. The IC50 in the experiment with active TGFβ3 was 3.6 nM; in the experiment with active TGFβ1 [2], 1.29 nM.

B1: sTBRII isoform 2 (long) (receptor, UniProt P37173-2 23-191, looked up)
chain: TIPPHVQKSDVEMEAQKDEIICPSCNRTAHPLRHINNDMIVTDNNGAVKFPQLCKFCDVRFSTCDNQKSCMSNCSITSICEKPQEVCVAVWRKNDENITLETVCHDPKLPYHDFILEDAASPKCIMKEKKKPGETFFMCSCSSDECNDNIIFSEEYNTSNPDLLLVIFQ
notes: also called TbRII (isoform II); TβRII isoform 2
As to B1, in the experiment with active TGFβ1 [2], the concentration for half-maximal inhibition (IC50) stood at 0.02 nM.

Broadly, the IC50 is the concentration that gives 50% inhibition. Lower therefore signals higher potency.
